Data taken from publication PMC3102065, “The Hexameric Structures of Human Heat Shock Protein 90” (PLoS ONE, 2011).
Several values for one entry are separate records, joined by “and”; a condition that tells them apart may be missing. Identical values can stand only once.

Legend:
[1] = biological target: the molecule itself; assay: crystal structure; MC-HSP90 in three crystal forms (C222_1 with cis-DEP, P2_1 with cisplatin, R32 with Silver Bullets No. 18); 2.5 M ammonium sulfate, 0.1 M tri-sodium citrate pH 5.4-5.8; molecular replacement
[2] = biological target: the molecule itself; assay: AUC; sedimentation velocity of fractions from the S-300 column, 0.3 mg/ml in 100 mM Tris-HCl, 45,000 rpm, 20°C, c(s) distribution (SEDFIT)
[3] = biological target: the molecule itself; assay: crystal structure; MC-HSP90-Ct, P6_322 crystal; 2.6 M ammonium sulfate, 0.1 M tri-sodium citrate pH 5.0, Silver Bullets No. 70; molecular replacement

Row | Protein | stoichiometry N [1] | stoichiometry N [2] | stoichiometry N [3]
1 | MC-HSP90 (N-terminal truncated human HSP90α, middle segment and carboxy-terminal domain, residues 293–732) (domain or fragment, two extra Ala residues encoded after the Factor Xa cleavage site; found at the N-terminus by MALDI-MS of the dissolved crystal; human heat shock protein 90α, residues 293-732 (M and C domains), from a full length cDNA (NM_005348.2; 732 residues); In solution a mixture of dimer, tetramer and hexamer; The reverse primer encodes six His after the last residue; also called truncated HSP90; wild-type …) not shown | 6 | 2 and 4 | –
2 | MC-HSP90 W320A (domain or fragment, two extra Ala residues encoded after the Factor Xa cleavage site (made on the plasmid pGEX-6p-1-MC-HSP90); human heat shock protein 90α, residues 293-732, with W320A; also called mutant W320A; mutant protein W320A of MC-HSP90; source: E. coli BL21 (DE3), expressed and purified as the wild-type MC-HSP90; not shown: GST, N-terminal, cleaved) not shown | – | 6 and 2 and 4 | –
3 | MC-HSP90-Ct (human HSP90α residues 293–697, C-terminal 35 residues also truncated) (domain or fragment, two extra Ala residues encoded after the Factor Xa cleavage site (same forward primer as MC-HSP90); human heat shock protein 90α, residues 293-697; Purified by a protocol similar to that of MC-HSP90; The reverse primer printed for this construct appears to encode eight His; also called C-terminal tail truncated MC-HSP90-Ct; source: E. coli BL21 (DE3), purified (Ni-NTA, Factor Xa cleavage, second …)) not shown | – | – | 6
